In PMC12661985, “USP25 deubiquitinates cytosolic METTL3 to impede glioma proliferation via an m6A-independent pathway” (iScience, 2025):

T1: His-USP25 (human, UniProt Q9UHP3 1-1055)
T1 construct: USP25, human; also called pGEX-4T-1-His-USP25; source: E. coli BL21, purified
T1 sequence (looked up): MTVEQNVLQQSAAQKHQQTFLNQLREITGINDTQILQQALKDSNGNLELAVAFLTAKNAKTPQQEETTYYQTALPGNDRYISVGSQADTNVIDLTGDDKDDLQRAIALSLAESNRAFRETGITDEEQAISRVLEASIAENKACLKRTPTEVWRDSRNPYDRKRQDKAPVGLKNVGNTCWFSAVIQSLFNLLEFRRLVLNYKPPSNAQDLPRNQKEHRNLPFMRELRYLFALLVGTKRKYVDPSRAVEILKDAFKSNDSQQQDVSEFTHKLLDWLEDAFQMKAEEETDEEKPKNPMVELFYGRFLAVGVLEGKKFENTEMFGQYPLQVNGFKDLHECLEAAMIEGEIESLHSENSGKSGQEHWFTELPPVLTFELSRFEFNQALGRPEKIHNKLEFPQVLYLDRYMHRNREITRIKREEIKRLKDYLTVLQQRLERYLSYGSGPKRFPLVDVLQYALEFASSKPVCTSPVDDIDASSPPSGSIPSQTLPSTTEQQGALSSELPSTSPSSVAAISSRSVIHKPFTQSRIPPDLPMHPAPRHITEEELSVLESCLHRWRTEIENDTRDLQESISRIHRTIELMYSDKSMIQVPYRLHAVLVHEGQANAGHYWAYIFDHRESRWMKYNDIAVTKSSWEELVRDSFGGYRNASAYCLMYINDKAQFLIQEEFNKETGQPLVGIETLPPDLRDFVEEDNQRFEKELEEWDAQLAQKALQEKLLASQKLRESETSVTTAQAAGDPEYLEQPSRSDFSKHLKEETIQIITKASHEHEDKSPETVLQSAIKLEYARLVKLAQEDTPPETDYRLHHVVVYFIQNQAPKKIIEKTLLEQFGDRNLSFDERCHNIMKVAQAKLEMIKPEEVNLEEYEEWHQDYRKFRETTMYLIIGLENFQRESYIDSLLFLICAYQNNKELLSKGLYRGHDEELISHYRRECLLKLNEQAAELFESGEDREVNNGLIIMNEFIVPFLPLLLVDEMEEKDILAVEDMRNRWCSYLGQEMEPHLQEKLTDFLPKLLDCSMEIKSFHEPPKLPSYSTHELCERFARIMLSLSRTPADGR


Experiments:
His-METTL3 = biological target: T2, His-METTL3 (human, UniProt Q86U44 1-580); assay: pull-down; about 10 ug GST fusion protein on glutathione Sepharose incubated with recombinant His-tagged protein, 2 h at 4 C, six washes with NETN buffer; blot with His antibodies; conditions: both partners purified
T2 construct: METTL3, human; also called pGEX-4T-1-His-METTL3; source: E. coli BL21, purified

His-USP25 = biological target: T1, His-USP25; assay: as above; conditions: both partners purified

T2 sequence (Q86U44 whole entry, the tested form may be a part): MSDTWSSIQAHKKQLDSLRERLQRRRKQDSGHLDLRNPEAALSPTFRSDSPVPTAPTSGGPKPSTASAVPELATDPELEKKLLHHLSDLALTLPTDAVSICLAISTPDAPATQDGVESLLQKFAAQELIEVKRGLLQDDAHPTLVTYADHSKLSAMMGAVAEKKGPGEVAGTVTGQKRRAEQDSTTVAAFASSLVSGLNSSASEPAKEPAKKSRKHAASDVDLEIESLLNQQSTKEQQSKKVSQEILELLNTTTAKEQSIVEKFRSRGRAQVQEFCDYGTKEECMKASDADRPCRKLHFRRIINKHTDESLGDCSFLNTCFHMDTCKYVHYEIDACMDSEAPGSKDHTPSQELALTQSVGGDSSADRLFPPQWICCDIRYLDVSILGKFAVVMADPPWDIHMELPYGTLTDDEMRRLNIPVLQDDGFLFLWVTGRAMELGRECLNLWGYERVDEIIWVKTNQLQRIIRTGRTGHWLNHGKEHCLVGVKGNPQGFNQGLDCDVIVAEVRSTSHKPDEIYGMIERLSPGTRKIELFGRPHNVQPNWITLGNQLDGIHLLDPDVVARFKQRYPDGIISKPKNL

Row | binding result (His-METTL3) | binding result (His-USP25) | Binder
1 | binds | – | GST-USP25-166-718 (domain or fragment, human, UniProt Q9UHP3 166-718, looked up, USP25, human, USP domain, residues 166-718; also called USP domain (aa 166-718) of USP25; pGEX-4T-1-GST-USP25-166-718; source: E. coli BL21, purified (glutathione Sepharose)) KAPVGLKNVGNTCWFSAVIQSLFNLLEFRRLVLNYKPPSNAQDLPRNQKEHRNLPFMRELRYLFALLVGTKRKYVDPSRAVEILKDAFKSNDSQQQDVSEFTHKLLDWLEDAFQMKAEEETDEEKPKNPMVELFYGRFLAVGVLEGKKFENTEMFGQYPLQVNGFKDLHECLEAAMIEGEIESLHSENSGKSGQEHWFTELPPVLTFELSRFEFNQALGRPEKIHNKLEFPQVLYLDRYMHRNREITRIKREEIKRLKDYLTVLQQRLERYLSYGSGPKRFPLVDVLQYALEFASSKPVCTSPVDDIDASSPPSGSIPSQTLPSTTEQQGALSSELPSTSPSSVAAISSRSVIHKPFTQSRIPPDLPMHPAPRHITEEELSVLESCLHRWRTEIENDTRDLQESISRIHRTIELMYSDKSMIQVPYRLHAVLVHEGQANAGHYWAYIFDHRESRWMKYNDIAVTKSSWEELVRDSFGGYRNASAYCLMYINDKAQFLIQEEFNKETGQPLVGIETLPPDLRDFVEEDNQRFEKELEEWDAQLAQKALQEKLLA
2 | – | binds | GST-METTL3-369-424 (domain or fragment, human, UniProt Q86U44 369-424, looked up, METTL3, human, Gate-loop 1; source: E. coli BL21, purified (glutathione Sepharose)) FPPQWICCDIRYLDVSILGKFAVVMADPPWDIHMELPYGTLTDDEMRRLNIPVLQD
3 | – | binds | GST-METTL3-425-500 (domain or fragment, human, UniProt Q86U44 425-500, looked up, METTL3, human, Interface loop, residues 425-500; also called Interface loop (aa 425-500) of METTL3; pGEX-4T-1-GST-METTL3-425-500; source: E. coli BL21, purified (glutathione Sepharose)) DGFLFLWVTGRAMELGRECLNLWGYERVDEIIWVKTNQLQRIIRTGRTGHWLNHGKEHCLVGVKGNPQGFNQGLDC
